The source of these data is paper PMC6457933 (Science Advances, 2019).

Common to all, as to experiment: crystal structure
Series [1] has as its target KR2 G263F mutant (Krokinobacter eikastus).
In series [2] the target is KR2 S254A mutant (Krokinobacter eikastus).
The series “crystal structure” deals with the molecule itself.

A word on the stoichiometry N: it is a count of units in the complex or per binding partner.

Molecule KR2 G263F mutant (natural protein) gave a stoichiometry N in series [1] of 5.
In series [2], KR2 S254A mutant (natural protein) yielded a stoichiometry N of 5.

B1: Krokinobacter eikastus rhodopsin 2 (KR2), wild type (natural protein)
chain: MTQELGNANFENFIGATEGFSEIAYQFTSHILTLGYAVMLAGLLYFILTIKNVDKKFQMSNILSAVVMVSAFLLLYAQAQNWTSSFTFNEEVGRYFLDPSGDLFNNGYRYLNWLIDVPMLLFQILFVVSLTTSKFSSVRNQFWFSGAMMIITGYIGQFYEVSNLTAFLVWGAISSAFFFHILWVMKKVINEGKEGISPAGQKILSNIWILFLISWTLYPGAYLMPYLTGVDGFLYSEDGVMARQLVYTIADVSSKVIYGVLLGNLAITLSKNKELVEANS
modifications: retinal covalently bound to Lys255 via the Schiff base
On to B1, for which the “stoichiometry N” value in the series “crystal structure” worked out at 5.
